Numbering of substitutions follows the chain as printed. Numbers in names are those of the source.
B1: DDR1 V408C (in the C287S background) (receptor, human, UniProt Q08345 19-913, looked up)
chain: DADMKGHFDPAKCRYALGMQDRTIPDSDISASSSWSDSTAARHSRLESSDGDGAWCPAGSVFPKEEEYLQVDLQRLHLVALVGTQGRHAGGLGKEFSRSYRLRYSRDGRRWMGWKDRWGQEVISGNEDPEGVVLKDLGPPMVARLVRFYPRADRVMSVCLRVELYGCLWRDGLLSYTAPVGQTMYLSEAVYLNDSTYDGHTVGGLQYGGLGQLADGVVGLDDFRKSQELRVWPGYDYVGWSNHSFSSGYVEMEFEFDRLRAFQAMQVHSNNMHTLGARLPGGVECRFRRGPAMAWEGEPMRHNLGGNLGDPRARAVSVPLGGRVARFLQCRFLFAGPWLLFSEISFISDVVNNSSPALGGTFPPAPWWPPGPPPTNFSSLELEPRGQQPCAKAEGSPTAILIGCLVAIILLLLLIIALMLWRLHWRRLLSKAERRVLEEELTVHLSVPGDTILINNRPGPREPPPYQEPRPRGNPPHSAPCVPNGSALLLSNPAYRLLLATYARPPRGPGPPTPAWAKPTNTQAYSGDYMEPEKPGAPLLPPPPQNSVPHYAEADIVTLQGVTGGNTYAVPALPPGAVGDGPPRVDFPRSRLRFKEKLGEGQFGEVHLCEVDSPQDLVSLDFPLNVRKGHPLLVAVKILRPDATKNARNDFLKEVKIMSRLKDPNIIRLLGVCVQDDPLCMITDYMENGDLNQFLSAHQLEDKAAEGAPGDGQAAQGPTISYPMLLHVAAQIASGMRYLATLNFVHRDLATRNCLVGENFTIKIADFGMSRNLYAGDYYRVQGRAVLPIRWMAWECILMGKFTTASDVWAFGVTLWEVLMLCRAQPFGQLTDEQVIENAGEFFRDQGRQVYLSRPPACPQGLYELMLRCWSRESEQRPPFSQLHRFLAEDALNTV
notes: discoidin domain receptor 1, isoform DDR1b, human; full-length cDNA in pRK5; source: HEK293, transiently transfected, in lysate
B2: DDR1 residue 414 to cysteine (in the C287S background) (receptor, human, UniProt Q08345 19-913, looked up)
chain: B1 chain with C390V, S396C
notes: discoidin domain receptor 1, isoform DDR1b, human; full-length cDNA in pRK5; The text gives only the range V408C to A417C (10 single mutants); also called one of the 10 mutants V408C to A417C; source: HEK293, transiently transfected, in lysate
B3: DDR1 residue 410 to cysteine (in the C287S background) (receptor, human, UniProt Q08345 19-913, looked up)
chain: B1 chain with C390V, K392C
notes: as for B2
B4: DDR1 residue 411 to cysteine (in the C287S background) (receptor, human, UniProt Q08345 19-913, looked up)
chain: B1 chain with C390V, A393C
notes: as for B2
B5: DDR1 residue 409 to cysteine (in the C287S background) (receptor, human, UniProt Q08345 19-913, looked up)
chain: B1 chain with C390V, A391C
notes: as for B2
B6: DDR1 E412C (in the C287S background) (receptor, human, UniProt Q08345 19-913, looked up)
chain: B1 chain with C390V, E394C
notes: as for B1
B7: DDR1 residue 413 to cysteine (in the C287S background) (receptor, human, UniProt Q08345 19-913, looked up)
chain: B1 chain with C390V, G395C
notes: as for B2

Biological target: the molecule itself
Experiment: cross-linking; disulfide cross-linking of introduced cysteines in transiently transfected HEK293 cells, untreated or with 10 ug/ml collagen I for 90 min at 37 °C; lysis in 1% Nonidet P-40 buffer with NEM; nonreducing SDS-PAGE on 5% gels, Western blot with anti-DDR1; efficiency as percent dimeric of total DDR1

Dimerization efficiency (percent dimeric of total DDR1), > 70%:
B1, B2, B3, B4, B5, B6, B7

From paper PMC4036362, “Normal Activation of Discoidin Domain Receptor 1 Mutants with Disulfide Cross-links, Insertions, or Deletions in the Extracellular Juxtamembrane Region” (The Journal of Biological Chemistry, 2014)
